Measurements from patent US20240116985A1 (published 2024).
Starred links: 1 amine or outer side, 2 acyl side, 3 side chain; linkers in the order of their positions; H or OH if unused. Positions of bridges follow the written chain, without caps; N, C: chain ends. Non-standard residues stand in square brackets, D forms with d. Primed or numbered codes have the meaning given here. *: point of attachment. PyrS2″ = (S)-3-amino-1-((pent-4-en-1-yloxy)carbonyl)pyrrolidine-3-carboxylic acid (stapling residue), C=CCCCOC(=O)N1CC[C@@](N[*:1])(C(=O)[*:2])C1; HypBzEs3OAllyl = (2R,4S)-4-((3-(allyloxy)benzoyl)oxy)pyrrolidine-2-carboxylic acid, C=CCOc1cccc(C(=O)O[C@H]2C[C@H](C(=O)[*:2])N([*:1])C2)c1; B5(4) = 2,2-bis(4-pentenyl)glycine = 2-amino-2-(pent-4-en-1-yl)hept-6-enoic acid (stitching residue), C=CCCCC(CCCC=C)(N[*:1])C(=O)[*:2]; (Me2NPrPip)GlnR″ = Glu side chain amide with 4-(3-(dimethylamino)propyl)piperazine, CN(C)CCCN1CCN(C(=O)CC[C@H](N[*:1])C(=O)[*:2])CC1; TfeGA = (S)-2-amino-3-((carboxymethyl)(2,2,2-trifluoroethyl)amino)propanoic acid, O=C([C@H](CN(CC(=O)[*:3])CC(F)(F)F)N[*:1])[*:2]; (2OxoPpz)GlnR = Glu side chain amide with 2-oxopiperazine (3-oxopiperazin-1-yl), O=C1CN(C(=O)CC[C@H](N[*:1])C(=O)[*:2])CCN1; (EtSO2Ppz)GlnR = Glu side chain amide with 4-(ethylsulfonyl)piperazine, CCS(=O)(=O)N1CCN(C(=O)CC[C@H](N[*:1])C(=O)[*:2])CC1; (bismethoxyethylamine)GlnR″ = N5,N5-bis(2-methoxyethyl)-L-glutamine, COCCN(CCOC)C(=O)CC[C@H](N[*:1])C(=O)[*:2]; B5(3) = 2,2-bis(4-pentenyl)glycine (stitching residue), C=CCCCC(CCCC=C)(N[*:1])C(=O)[*:2]; Phe(3-COOH) = N[C@@H](Cc1cccc(C(=O)O)c1)C(=O)O; 2F3MeF = Cc1cccc(C[C@H](N[*:1])C(=O)[*:2])c1F; Phe(2-CF3) = N[C@@H](Cc1ccccc1C(F)(F)F)C(=O)O; Phe(2-Cl) = N[C@@H](Cc1ccccc1Cl)C(=O)O; Bta = N[C@@H](Cc1csc2ccccc12)C(=O)O; αAllylPro = C=CC[C@@]1(C(=O)O)CCCN1; tBuAla = CC(C)(C)C[C@H](N)C(=O)O; 3Thi = N[C@@H](Cc1ccsc1)C(=O)O; PyrS2(4) = not defined here; 2F3MeF(3) = Phe analogue; Abu = CC[C@H](N)C(=O)O; Moc = COC(=O)*

B1: I-2316 (peptide)
peptide: Ac-[αAllylPro]D[tBuAla][B5(4)]D[Phe(3-COOH)][(TfePpz)GlnR]AFL[PyrS2(4)][2F3MeF][Bta]A-NH2
modifications: staple 1-4, 4-11; reading uncertain; also: printed as Ac-PL3-Asp-Npg-B5-Asp-3COOHF-[TfePpz]GlnR-Ala-Phe-Leu-PyrS2-2F3MeF-BztA-Ala-NH2

What follows are binders tested against T1, B-cat-Halo (beta-catenin HaloTag NanoBRET construct expressed in HEK293 cells) (UniProt P35222 1-781) (assay: cell-based or functional assay).
T1 sequence (looked up): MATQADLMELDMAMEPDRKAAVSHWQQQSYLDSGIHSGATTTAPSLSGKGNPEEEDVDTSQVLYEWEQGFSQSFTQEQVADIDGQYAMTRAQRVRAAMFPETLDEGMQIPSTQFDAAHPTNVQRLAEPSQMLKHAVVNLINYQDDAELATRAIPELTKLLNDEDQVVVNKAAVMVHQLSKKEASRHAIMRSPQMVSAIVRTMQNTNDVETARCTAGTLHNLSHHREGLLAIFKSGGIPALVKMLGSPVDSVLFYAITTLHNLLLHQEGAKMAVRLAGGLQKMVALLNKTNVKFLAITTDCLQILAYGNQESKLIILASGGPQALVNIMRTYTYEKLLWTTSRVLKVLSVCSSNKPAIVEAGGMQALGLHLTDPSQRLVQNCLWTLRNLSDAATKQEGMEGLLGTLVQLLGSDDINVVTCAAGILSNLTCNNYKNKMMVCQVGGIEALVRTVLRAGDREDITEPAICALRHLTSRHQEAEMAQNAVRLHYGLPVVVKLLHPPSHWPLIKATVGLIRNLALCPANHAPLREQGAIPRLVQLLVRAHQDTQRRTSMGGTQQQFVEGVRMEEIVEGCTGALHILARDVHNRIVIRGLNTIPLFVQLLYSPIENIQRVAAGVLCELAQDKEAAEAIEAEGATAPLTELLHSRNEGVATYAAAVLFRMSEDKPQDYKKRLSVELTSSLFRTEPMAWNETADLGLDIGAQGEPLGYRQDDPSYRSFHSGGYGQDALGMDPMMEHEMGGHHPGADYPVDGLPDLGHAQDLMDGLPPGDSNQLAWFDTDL
In the case of Ac-[αAllylPro]D[tBuAla][B5(3)]D[Phe(3-COOH)]AAFL[PyrS2″][Phe(2-CF3)][SbMe2NapA]Q-NH2 (staple 1-4, 4-11) [Ac-PL3-Asp-Npg-B5-Asp-3COOHF-Ala-Ala-Phe-Leu-PyrS2-2F3MeF-SbMe2NapA-Gln-NH2], the “NanoBRET Abs IC50” value is reported as 16.5 µM. With Ac-[αAllylPro]D[tBuAla][B5(3)]D[TfeGA]AAFL[PyrS2″][3Thi][Bta][(NHEt)GlnR]A-NH2 (staple 1-4, 4-11) [Ac-PL3-Asp-Npg-B5-Asp-TfeGA-Ala-Ala-Phe-Leu-PyrS2-3Thi-BztA-[NHEt]GlnR-Ala-NH2] the “NanoBRET Abs IC50” value was 2.1 µM. Ac-[αAllylPro]D[tBuAla][B5(3)]D[Phe(3-COOH)]AAF[Abu][PyrS2″][2F3MeF][Bta][(NHEt)GlnR]A-NH2 (staple 1-4, 4-11) [Ac-PL3-Asp-Npg-B5-Asp-3COOHF-Ala-Ala-Phe-Abu-PyrS2-2F3MeF-BztA-[NHEt]GlnR-Ala-NH2] was tested, and the “NanoBRET Abs IC50” value was 1.8 µM. In the case of Ac-[αAllylPro]D[tBuAla][B5(3)]D[Phe(3-COOH)]QAFL[PyrS2″][2F3MeF(3)][SbMe2NapA]A-NH2 (staple 1-4, 4-11) [Ac-PL3-Asp-Npg-B5-Asp-3COOHF-Gln-Ala-Phe-Leu-PyrS2-2F3MeF-SbMe2NapA-Ala-NH2], the “NanoBRET Abs IC50” value is reported as greater than 20 µM. With Ac-[αAllylPro]D[tBuAla][B5(3)]D[Phe(3-COOH)]QAFL[PyrS2″][Phe(2-CF3)][RbMe2NapA]A-NH2 (staple 1-4, 4-11) [Ac-PL3-Asp-Npg-B5-Asp-3COOHF-Gln-Ala-Phe-Leu-PyrS2-2F3MeF-RbMe2NapA-Ala-NH2] the “NanoBRET Abs IC50” value was 6.5 µM.

These binders were tested against T2, Bcat-Halo (UniProt P35222 1-781) (assay: cell-based or functional assay).
T2 sequence (looked up): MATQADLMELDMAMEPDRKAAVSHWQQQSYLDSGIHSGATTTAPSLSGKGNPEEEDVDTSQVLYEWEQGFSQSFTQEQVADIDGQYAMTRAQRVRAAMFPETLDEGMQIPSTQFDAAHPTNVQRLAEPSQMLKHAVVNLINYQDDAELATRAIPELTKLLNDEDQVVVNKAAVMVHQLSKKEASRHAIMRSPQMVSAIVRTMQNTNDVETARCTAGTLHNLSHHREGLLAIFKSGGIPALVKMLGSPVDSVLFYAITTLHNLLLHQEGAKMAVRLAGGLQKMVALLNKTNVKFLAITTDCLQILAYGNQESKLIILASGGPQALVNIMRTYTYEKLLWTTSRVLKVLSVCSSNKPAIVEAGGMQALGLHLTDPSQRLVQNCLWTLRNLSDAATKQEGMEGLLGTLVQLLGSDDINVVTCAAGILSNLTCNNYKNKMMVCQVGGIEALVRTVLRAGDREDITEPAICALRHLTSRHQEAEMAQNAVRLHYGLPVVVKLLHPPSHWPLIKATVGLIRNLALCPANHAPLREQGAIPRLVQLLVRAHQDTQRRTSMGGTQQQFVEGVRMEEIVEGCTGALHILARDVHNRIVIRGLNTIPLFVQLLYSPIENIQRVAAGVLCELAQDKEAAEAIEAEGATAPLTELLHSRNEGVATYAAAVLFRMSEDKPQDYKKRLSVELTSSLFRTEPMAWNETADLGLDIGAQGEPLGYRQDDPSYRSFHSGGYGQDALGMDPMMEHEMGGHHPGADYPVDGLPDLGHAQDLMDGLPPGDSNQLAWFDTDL
For Ac-[αAllylPro]D[tBuAla][B5(4)]D[Phe(3-COOH)][(EtSO2Ppz)GlnR]AFL[PyrS2″][2F3MeF][Bta]A-NH2 (staple 1-4, 4-11) [I-2321], the “NanoBRET Abs IC50” value was 1.7 µM. For Ac-[αAllylPro]D[tBuAla][B5(3)]N[Phe(3-COOH)]AAFN[PyrS2″][3Thi][Bta]Q-NH2 (staple 1-4, 4-11) [I-2335], the “NanoBRET Abs IC50” value was 37 µM. With Ac-[αAllylPro]D[tBuAla][B5(4)]D[Phe(3-COOH)][(Me2NPrPip)GlnR″]AFL[PyrS2″][2F3MeF][Bta]A-NH2 (staple 1-4, 4-11) [I-2323] the “NanoBRET Abs IC50” value was 17.7 µM. For Ac-[αAllylPro]D[tBuAla][B5(4)]D[Phe(3-COOH)][(bismethoxyethylamine)GlnR″]AFL[PyrS2″][2F3MeF][Bta]A-NH2 (staple 1-4, 4-11) [I-2322], the “NanoBRET Abs IC50” value was 1.8 µM. In the case of Ac-[HypBzEs3OAllyl]D[tBuAla][B5(3)]D[TfeGA]AAFL[PyrS2″][3Thi][Bta]Q-NH2 (staple 1-4, 4-11; also: staple -CH=CH- reduced to -CH2-CH2-) [I-2328], the “NanoBRET Abs IC50” value is reported as greater than 20 µM. For Moc-[αAllylPro]D[tBuAla][B5(3)]D[Phe(3-COOH)]AAFL[PyrS2″][Phe(2-Cl)][Bta]A-NH2 (staple 1-4, 4-11) [I-2324], the “NanoBRET Abs IC50” value was 14.8 µM. In the case of Ac-[αAllylPro]D[tBuAla][B5(4)]D[Phe(3-COOH)][(2OxoPpz)GlnR]AFL[PyrS2″][2F3MeF][Bta]A-NH2 (staple 1-4, 4-11) [I-2318], the “NanoBRET Abs IC50” value is reported as 1.8 µM. Ac-[αAllylPro]D[tBuAla][B5(4)]D[Phe(3-COOH)][(4Pippip)GlnR]AFL[PyrS2″][2F3MeF][Bta]A-NH2 (staple 1-4, 4-11) [I-2317] was tested, and the “NanoBRET Abs IC50” value was 18.8 µM. B1 was tested, and the “NanoBRET Abs IC50” value was 1.6 µM.
